In publication PMC8589321 (Science Advances, 2021):

Molecular target: T1, complex I subunit ND1 (Yarrowia lipolytica) (Yarrowia lipolytica, UniProt Q9B6E8 1-341)
T1 sequence (looked up): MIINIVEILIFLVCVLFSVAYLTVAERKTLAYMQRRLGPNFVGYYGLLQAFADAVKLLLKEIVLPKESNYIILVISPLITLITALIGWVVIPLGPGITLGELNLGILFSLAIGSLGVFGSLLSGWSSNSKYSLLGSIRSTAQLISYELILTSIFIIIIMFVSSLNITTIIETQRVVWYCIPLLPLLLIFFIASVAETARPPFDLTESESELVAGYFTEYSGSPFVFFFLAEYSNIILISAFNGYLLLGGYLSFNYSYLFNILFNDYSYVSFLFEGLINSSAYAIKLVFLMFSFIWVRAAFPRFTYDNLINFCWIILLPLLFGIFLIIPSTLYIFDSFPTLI
Assay: cryo-EM structure

B1: complex I subunit ND6 (Yarrowia lipolytica) (natural protein, UniProt Q9B6E9 1-185, looked up)
chain: MMYLTYYFIEITIFLAILCTIFIISAKNPMVSILYMIALFVIAAMYLYLIGLGIFSLLYIMIYIGAIAVLFLFIITLLDINSTELSVKSNIRDLPLVLISLIVLTISGLMIYSNDSILINKLLEAFGNDYNTIITQDWFNIENTTLLTTIGNVLLTNNAFILLVLAIVLLLGIIGPISITMKHKE
binding result: binds
